This note sets out measurements from patent publication US11814447B2, “Peptide ligands for binding to EphA2” (BICYCLERD LIMITED, priority 2018, dated 2023).

A word on the Ki: it is the dissociation constant of the complex between target and ligand, obtained from inhibition or displacement. By Kd is commonly meant the equilibrium constant for the complex coming apart.

Starred links: 1 amine or outer side, 2 acyl side, 3 side chain; linkers in the order of their positions; H or OH if unused. Positions of bridges follow the written chain, without caps; N, C: chain ends. Non-standard residues stand in square brackets, D forms with d. No end group written: not given here. TATA = O=C(CC[*:1])N1CN(C(=O)CC[*:2])CN(C(=O)CC[*:3])C1; 1Nal = N[C@@H](Cc1cccc2ccccc12)C(=O)O; TBMB = c1c(C[*:1])cc(C[*:3])cc1C[*:2]; hArg = N=C(N)NCCCC[C@H](N)C(=O)O; Tle = CC(C)(C)[C@H](N)C(=O)O; AF488 = AlexaFluor488; Aib = CC(C)(N)C(=O)O; βAla = NCCC(=O)O; Sar = CNCC(=O)O

In assay [1] the target is Mouse EphA2 (Ecto) (Mouse) (UniProt Q03145). The experiment in a line: FP competition; tracer Reference Compound C.
In assay [2] the target is Human EphA2 (Ecto) (Human) (UniProt P29317). Kind of assay: FP competition; tracer Reference Compound C.
Assay [3] concerns the target T1, Human EphA2 (Ecto), C-terminal polyHis (Human, UniProt P29317 24-537).
T1 construct: extracellular domain; also called EPH receptor A2; ephrin type-A receptor 2
Kind of assay: fluorescence polarisation, direct binding. The protocol:
Biological Data 1. […] The gain used for analysis was determined for each tracer at the end of the 60 minutes where there was no protein in the well. Data was analysed using Systat Sigmaplot version 12.0. mP values were fit to a user defined quadratic equation to generate a Kd value: f=y min+(y max−y min)/Lig*((x+Lig+Kd)/2−sqrt((((x+Lig+Kd)/2)^2)−(Lig*x))). "Lig" was a defined value of the concentration of tracer used.
On the technique in general: Polarisation of emitted light reports the rotation of a fluorescent probe.

The target of a further assay is T2, Mouse EphA2 (Ecto) (Mouse, UniProt Q03145 26-538).
T2 construct: extracellular domain; C-terminal polyHis; not shown: Fc fusion or C-terminal polyHis
Kind of assay: FP competition; tracer Reference Compound C. In short, it runs like this: (§1)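 Unlabelled peptides competed against a fluorescently tagged peptide of known Kd. Peptides were diluted in direct-binding assay buffer (≤5% DMSO) and serially diluted 1 in 2. Read as in the direct binding assay, with gain set before the first read; mP values fit to a cubic equation to give Ki.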

In a further assay the target is T3, Human EphA2 (Ecto) (Human, UniProt P29317 24-537).
T3 construct: extracellular domain; in-house)
Kind of assay: FP competition; tracer Reference Compound C. Summed up: as §1

Assay [4] has as its target Mouse EphA2 (Ecto) (Mouse) (UniProt Q03145). Kind of assay: FP competition, tracer Compound 18.
The target in assay [5] is Human EphA2 (Ecto) (Human) (UniProt P29317). Kind of assay: FP competition, tracer Compound 18.
The target of assay [6] is T1, Human EphA2 (Ecto), C-terminal polyHis. The experiment in a line: fluorescence polarisation competition; competitor fluorescent Compound 66. Summed up:
as §1

For assay [7] the target is unchanged. Kind of assay: fluorescence polarisation competition; competitor fluorescent Compound 1. As for the experimental part:
(§2) Peptides without a fluorescent tag were tested in competition with a peptide with a fluorescent tag and a known Kd (Table 2). Peptides were diluted to an appropriate concentration in assay buffer as described in the direct binding assay with a maximum of 5% DMSO, then serially diluted 1 in 2. […] Measurements were conducted as for the direct binding assay, however the gain was determined prior to the first measurement. Data analysis was in Systat Sigmaplot version 12.0 where the mP values were fit to a user defined cubic equation to generate a Ki value: […]

Assay [8] has the same target. Kind of assay: fluorescence polarisation competition; competitor fluorescent Compound 12. As for the experimental part:
as §2

T2 sequence (Q03145 26-538): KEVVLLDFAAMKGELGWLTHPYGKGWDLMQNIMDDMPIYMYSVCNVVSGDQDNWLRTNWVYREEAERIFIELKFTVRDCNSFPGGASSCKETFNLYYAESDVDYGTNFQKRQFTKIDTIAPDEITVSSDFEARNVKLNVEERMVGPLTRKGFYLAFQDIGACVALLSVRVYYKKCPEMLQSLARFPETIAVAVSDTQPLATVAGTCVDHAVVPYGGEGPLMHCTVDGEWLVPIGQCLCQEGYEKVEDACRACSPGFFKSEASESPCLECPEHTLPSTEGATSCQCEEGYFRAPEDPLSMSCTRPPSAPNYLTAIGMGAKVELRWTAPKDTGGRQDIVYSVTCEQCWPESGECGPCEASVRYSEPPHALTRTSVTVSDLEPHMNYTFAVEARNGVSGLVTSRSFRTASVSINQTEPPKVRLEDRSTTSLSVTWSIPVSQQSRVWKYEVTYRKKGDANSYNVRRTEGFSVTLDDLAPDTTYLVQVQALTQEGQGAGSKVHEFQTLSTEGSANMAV
Chain of Mouse EphA2 (Ecto) (Mouse) (Q03145 26-538): as above
T3 sequence (P29317 24-537): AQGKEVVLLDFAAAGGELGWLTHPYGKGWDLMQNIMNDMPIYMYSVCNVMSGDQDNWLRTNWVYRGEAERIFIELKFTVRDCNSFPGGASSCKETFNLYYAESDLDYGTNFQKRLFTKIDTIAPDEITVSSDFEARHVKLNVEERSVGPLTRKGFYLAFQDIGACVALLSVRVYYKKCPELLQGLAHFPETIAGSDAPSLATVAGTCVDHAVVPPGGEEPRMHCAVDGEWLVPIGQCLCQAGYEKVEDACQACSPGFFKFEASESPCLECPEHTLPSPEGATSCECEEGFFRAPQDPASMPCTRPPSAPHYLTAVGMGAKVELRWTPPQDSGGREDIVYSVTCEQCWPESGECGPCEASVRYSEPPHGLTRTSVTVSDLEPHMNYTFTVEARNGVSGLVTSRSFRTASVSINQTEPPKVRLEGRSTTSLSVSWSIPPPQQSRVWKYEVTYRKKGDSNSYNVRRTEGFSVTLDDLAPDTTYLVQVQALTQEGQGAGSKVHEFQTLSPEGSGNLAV
T1 sequence (P29317 24-537): as above
Chain of Human EphA2 (Ecto) (Human) (P29317 24-537): as above

B1: Bicycle Compound Number 90 (TATA scaffold), (β-Ala)-Sar10-…(HArg)GQ (peptide)
peptide: [βAla][Sar][Sar][Sar][Sar][Sar][Sar][Sar][Sar][Sar][Sar]ACPLVNPLCLHPGWSC[hArg]GQ
modifications: linker 13-20-27 via TATA
Regarding B1, the Ki in assay [1] stood at 47 nM; in assay [2], 5.41 nM.

B2: Bicycle Compound Number 14 (TBMB scaffold) (peptide)
peptide: GXXXXXXXXXXACPWGPAWCPVNRPGCA
modifications: N-terminal AF488 (AlexaFluor488); Sar10; 3 Cys thioether-linked to TBMB scaffold
Molecule B2 had a Kd in assay [3] of 38 nM.

B3: Bicycle Compound Number 77 (BCY6019) (TATA scaffold), Ac-CPLVNPLCLHPGWTCLHG-Sar6-(D-K) (peptide)
peptide: CPLVNPLCLHPGWTCLHGXXXXXXK
modifications: N-terminal acetyl; X at 19-24 = Sar; K25 = D-Lys; 3 Cys thioether-linked to TATA scaffold
Take B3: the Ki came out at 48.2 nM in the assay with Mouse EphA2 (Ecto) and 5.41 nM with Human EphA2 (Ecto).

B4: Bicycle Compound Number 68 (TATA scaffold), Ac-ARDCPLVNPLCLHPGWTCA-Sar6-(D-K) (peptide)
peptide: ARDCPLVNPLCLHPGWTCAXXXXXXK
modifications: N-terminal acetyl; X at 20-25 = Sar (sarcosine); K26 = D-Lys; 3 Cys thioether-linked to TATA scaffold
For B4, the inhibitory constant (Ki) with Mouse EphA2 (Ecto) amounted to 166 nM; with Human EphA2 (Ecto), 19.3 nM.

B5: Bicycle Compound Number 2 (TBMB scaffold) (peptide)
peptide: AF488-G[Sar][Sar][Sar][Sar][Sar][Sar][Sar][Sar][Sar][Sar]ACMNDWLCSLGWTC
modifications: linker 13-19-25 via TBMB
The molecule B5 showed a Kd in assay [3] of 326 nM.

B6: Bicycle Compound 262 (peptide)
peptide: Ac-[Sar][Sar]H[dD]VPCP[1Nal]G[Aib]F[1Nal]CP[Tle]NR[Aib]GC
modifications: linker 7-14-21 via TBMB
For the molecule B6, the Ki in assay [4] came out at 0.72 nM; in assay [5], 0.71 nM.

B7: Bicycle Compound Number 89 (TATA scaffold), (β-Ala)-Sar10-ACPLVNPLCLHPGWSCRGQ (peptide)
peptide: XXXXXXXXXXXACPLVNPLCLHPGWSCRGQ
modifications: N-terminal (β-Ala)-Sar10; 3 Cys thioether-linked to TATA scaffold
Turning to B7, the inhibitory constant (Ki) was determined as 29.6 nM with Mouse EphA2 (Ecto) and 2.86 nM with Human EphA2 (Ecto).

B8: Bicycle Compound Number 87 (BCY6026) (TATA scaffold), ACPLVNPLCLHPGWSCRGQ (peptide)
peptide: ACPLVNPLCLHPGWSCRGQ
modifications: linker 2-9-16 via TATA
For B8, the Ki amounted to 18.6 nM with Mouse EphA2 (Ecto) and 2.57 nM in the assay with Human EphA2 (Ecto).

B9: Bicycle Compound Number 63 (TBMB scaffold) (peptide)
peptide: ACVPQGIWCALQFEPCA
modifications: linker 2-9-16 via TBMB (inferred)
notes: also called Compound 63
As for B9, the Ki in assay [6] was found to be 82.5 nM; in assay [7], 144 nM; in assay [8], 92.2 nM.

B10: Bicycle Compound 254 (peptide)
peptide: Ac-[Sar][Sar]H[dD]VPCP[1Nal]G[Aib]F[1Nal]CP[Tle]N[hArg]P[dD]C
modifications: linker 7-14-21 via TBMB
Take B10: the results for the Ki in assay [4] and in assay [5] were 0.64 nM and 0.74 nM, respectively.

B11: Bicycle Compound Number 64 (TBMB scaffold) (peptide)
peptide: ACTTGSIWCALQFEPCA
modifications: linker 2-9-16 via TBMB (inferred)
notes: also called Compound 64
Take B11: the Ki was 63.4 nM in assay [6] and 410 nM in assay [8].

B12: Bicycle Compound Number 76 (TATA scaffold), (β-Ala)-Sar10-ACPLVNPLCLHPGWTCL(D-His)G (peptide)
peptide: XXXXXXXXXXXACPLVNPLCLHPGWTCLHG
modifications: X1 = β-Ala; X at 2-11 = Sar; H29 = D-His; 3 Cys thioether-linked to TATA scaffold
Consider B12, for which the figures for the Ki in the assay with Mouse EphA2 (Ecto) and in the assay with Human EphA2 (Ecto) were 75.2 nM and 10 nM, respectively.

B13: Bicycle Compound Number 91 (BCY6042) (TATA scaffold), Ac-CPLVNPLCLHPGWSCRGQ-Sar6-(D-K) (peptide)
peptide: CPLVNPLCLHPGWSCRGQXXXXXXK
modifications: N-terminal acetyl; X at 19-24 = Sar; K25 = D-Lys; 3 Cys thioether-linked to TATA scaffold
With B13, the Ki in the assay with Mouse EphA2 (Ecto) was 49.9 nM; with Human EphA2 (Ecto), 5.98 nM.

B14: Bicycle Compound Number 67 (BCY6014) (TATA scaffold), (β-Ala)-Sar10-A(HArg)… (peptide)
peptide: [βAla][Sar][Sar][Sar][Sar][Sar][Sar][Sar][Sar][Sar][Sar]A[hArg]DCPLVNPLCLHPGWTC
modifications: linker 15-22-29 via TATA
Regarding B14, the Ki was found to be 61.7 nM in assay [1] and 8.51 nM in assay [2].
